The record followed here is article PMC7380067.

Series [1] deals with AgrR-His6 (Cupriavidus metallidurans NA4). In words: EMSA. The note with it: 25 ug/ml salmon sperm DNA; 25 mM Na2HPO4, 150 mM NaCl, 0.1 mM EDTA, 2 mM MgCl2, 1 mM DTT, 10% glycerol, pH 7.0, 22 C, about 0.1 nM probe, 25 ug/ml sonicated salmon sperm DNA. (In general: A gel shift assay detects complexes by their altered migration in electrophoresis.)
In series [2] the target is T1, AgrR-His6 (Cupriavidus metallidurans NA4) (UniProt Q1LMJ6).
T1 sequence: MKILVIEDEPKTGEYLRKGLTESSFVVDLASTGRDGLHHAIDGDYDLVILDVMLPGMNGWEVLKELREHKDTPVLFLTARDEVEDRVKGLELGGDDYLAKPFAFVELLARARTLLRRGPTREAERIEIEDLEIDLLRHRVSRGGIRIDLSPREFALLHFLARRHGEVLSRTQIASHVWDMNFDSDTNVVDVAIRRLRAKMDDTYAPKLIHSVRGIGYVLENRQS
Briefly: EMSA. The note with it: 25 mM Na2HPO4, 150 mM NaCl, 0.1 mM EDTA, 2 mM MgCl2, 1 mM DTT, 10% glycerol, pH 7.0, 22 C, about 0.1 nM probe, 25 ug/ml sonicated salmon sperm DNA.

The subject of series [3] is MBP-AgrR D51A (Cupriavidus metallidurans NA4). Briefly: EMSA. The note with it: 25 ug/ml salmon sperm DNA; 25 mM Na2HPO4, 150 mM NaCl, 0.1 mM EDTA, 2 mM MgCl2, 1 mM DTT, 10% glycerol, pH 7.0, 22 C, about 0.1 nM probe, 25 ug/ml sonicated salmon sperm DNA.
Series [4] has as its target T2, MBP-AgrR D51A D51A (Cupriavidus metallidurans NA4) (UniProt Q1LMJ6).
T2 sequence: T1 sequence with D51A
Briefly: DNase I footprinting. The note with it: 25 mM Na2HPO4, 150 mM NaCl, 0.1 mM EDTA, 2 mM MgCl2, 1 mM DTT, 10% glycerol, pH 7.0, 22 C, about 0.1 nM probe, 25 ug/ml sonicated salmon sperm DNA.

Series [5] deals with T1, AgrR-His6 (Cupriavidus metallidurans NA4). In words: DNase I footprinting. The following applies: 25 mM Na2HPO4, 150 mM NaCl, 0.1 mM EDTA, 2 mM MgCl2, 1 mM DTT, 10% glycerol, pH 7.0, 22 C, about 0.1 nM probe, 25 ug/ml sonicated salmon sperm DNA.
Series [6] has the same target. Briefly: in gel (OP)2-Cu+ footprinting. The note with it: 25 mM Na2HPO4, 150 mM NaCl, 0.1 mM EDTA, 2 mM MgCl2, 1 mM DTT, 10% glycerol, pH 7.0, 22 C, about 0.1 nM probe, 25 ug/ml sonicated salmon sperm DNA.
Series [7] addresses T3, MBP-AgrR D51E D51E (Cupriavidus metallidurans NA4) (UniProt Q1LMJ6).
T3 sequence: T1 sequence with D51E
In words: EMSA. The note with it: 25 mM Na2HPO4, 150 mM NaCl, 0.1 mM EDTA, 2 mM MgCl2, 1 mM DTT, 10% glycerol, pH 7.0, 22 C, about 0.1 nM probe, 25 ug/ml sonicated salmon sperm DNA.

In series [8] the target is T2, MBP-AgrR D51A D51A (Cupriavidus metallidurans NA4). In words: EMSA. The following applies: 25 mM Na2HPO4, 150 mM NaCl, 0.1 mM EDTA, 2 mM MgCl2, 1 mM DTT, 10% glycerol, pH 7.0, 22 C, about 0.1 nM probe, 25 ug/ml sonicated salmon sperm DNA.
For series [9] the target is unchanged. In words: premodification binding interference (depurination, depyrimidination, DMS methylation). The note with it: 25 mM Na2HPO4, 150 mM NaCl, 0.1 mM EDTA, 2 mM MgCl2, 1 mM DTT, 10% glycerol, pH 7.0, 22 C, about 0.1 nM probe, 25 ug/ml sonicated salmon sperm DNA.

By Kd is commonly meant the constant that tells how readily two partners part at equilibrium. Low readings indicate tighter binding, high ones weaker binding.

Residue numbers refer to the chain shown, from its start.

czcL-czcR2 intergenic region had a Kd in [1] of 26.5 µM.

The substance copA2-copR2 intergenic region yielded a Kd in series [1] of 2.1 µM.

On to prsQ2 promoter/operator, for which the Kd in series [1] was determined as 1.6 µM.

Take “TGAAGCCGATCCATGACATAGTCTCCCTGTTCACCGGTGAATTTTTACACGATCCGGGTGATTTATTGTTGAAAGCACAACCAATCATTGTGGACGGCGCTATTTATTCATATCAGGGAAATGCCTAATATCGCACCATCTGATGCCGCATTGCAGCACCGGTCCTGGGACCACCGGCATCCTTGAATGTGAAAGAGGATTCCATCATG (double strand) [prsQ1 promoter]”: the binding entry in series [2] is listed as “no binding”.

Take agrR control region: the Kd stood at 1600 nM in [3] and 16.5 µM in series [1].

On to “ATTGGAGCGGCGAGTATAGAAATGCCGACATTTCGTTTCGATTGCGGCGAGATTACAGCCGCATCGTTCCGGGCGCGGGCAGGCAGAAAAGGAGGGCGCGAGAGAAGGGCGAGAGAAGGGCGAGGGAAGGGCGGGACTACCCCGCGCCTTGGGTGCGGGGCCTGTGTCGGGTCAATCGACCCAGTTCACCTT (double strand) [ompC-like promoter]”, for which, in series [2], the binding entry is “binds more weakly”.

On to “AGGACGTTATCAGGGGTGGTGCGAGCCATGTCAAATTCCATTGATTCTTGTTCCCTGTCATTGAAGACCCTTTAGTCGCTACAGGGTCAAGCGCCTGCCGAAAATCTTTGGAGCGGCGCAAACATGACATGAACGTAATGTTTGCCCGCTCGCTAAACGCCTATAATCGCC (double strand) [czcI2 promoter]”, for which the binding entry in series [2] is given as “binds more weakly”.

“TAGAACTGCCTGTGTTGAGCAGTTGCAGCATTGTACTGCCTCTAACGGTTGCAAAATGGCTATATCAAGATGACATTCGTGCAATGTTCGCCAATTCGTGGCAAAGCTCCGCTAGTGTCTCGGTCTATATCCAGAACCTCGAATAATGGGCCGGTACCAA (double strand) [czcL-czcR2 intergenic region]” displayed a Kd in [2] of 26.5 µM.

Consider “GTGTCCTCGTCAAACCAATGCACCCGGGCCCCGTGCCCGGAAAACGCCGCAAGTGTACGCCGCGGTCCGAACATGACGCGGACATTACCGGAATGTAATTTTTGGGTCATTAGGTGGTTACCGCGCCCTGACTACTCTGTGCTCGCTGCGCCATTTTGCTGGCGCGATTTCACAATGAGAA (double strand) [copA2-copR2 intergenic region]”, for which the binding result in [4], in [5] and in series [6] was “binds” in each case. Also, the equilibrium dissociation constant (Kd) in [2] turned out to be 2.1 µM.

“ATGGGTTACGGGTTGTTCACGGCTTGCTGGAGAGTCTGATCGGTCGTTGCGCGACCTTGGAATGCAGTCTAGAGGGCGGGTCCCGACGCGAACATGACCCTTGAATGACATTGATGTCATTTGTCCGAGGCAATGCGATACGATTGCCGGACAGGGTGCCGACCGGACAATGAATTCGGCCTTGGCGACAAATCCACGCCAAACAAC (double strand) [prsQ2 promoter/operator]” gave a dissociation constant (Kd) in series [2] of 1.6 µM. For the same substance, in series [6], the binding entry is “binds”.

For the substance “GTTTTCATCCTCAGCTGCACGGGCTCACAGCTCAAACGATGCCGCCGATGATAACGGCGCAGGTTCGCCTATTGGATGACAAGACTGTAATCGTTTCGTCCCCGTTTGAAAGGGTGTTGCGTACATAGAATCGCCGCTAATTCTGGATGACCGGCGCCGACAGCGCCTGGAGTGAACCATGTGGATTGTGC (double strand) [agrR control region]”, the binding result is listed as “binds” in series [4]; “binds” in [5]; “binds more weakly” in series [7]; “binds” in [6]; “binds” in [9]. For the same substance, the dissociation constant (Kd) in series [8] was determined as 1600 nM; in series [2], 16.5 µM.
